The values below come from publication PMC7913698, “RPA complexes in Caenorhabditis elegans meiosis; unique roles in replication, meiotic recombination and apoptosis” (Nucleic Acids Research, 2021).

Holding throughout (experiment): single-molecule pull-down (SiMPull, TIRF microscopy); whole worm lysate of the triple-tagged strain; biotinylated antibody against the tag of one subunit (anti-OLLAS, anti-FLAG or anti-MYC) tethered to the neutravidin surface captures complexes; Cy3- and Cy5-labelled antibodies against the tags detect the subunits; track counts after wash, summed over fields of view; controls: Pre-Ab and untagged wild-type lysate

Data set [1] has as its target OLLAS::RPA-1 (C. elegans) (UniProt Q19537).
Data set [2] addresses 3XFLAG::RPA-2 (C. elegans) (UniProt Q95Y97).
The target in the next data set is MYC::RPA-4 (C. elegans).
Data set [3] concerns the molecule itself.

As for MYC::RPA-4 (natural protein), the pulldown counts in data set [1] was 1810 counts; in data set [2] it was 206 counts; with MYC::RPA-4 (C. elegans), 2300 counts.

B1: 3XFLAG::RPA-2 (natural protein, C. elegans, UniProt Q95Y97 1-288, looked up)
chain: MWNETVEHENAGNGWAAGESSFMTDRKPDSKATTLGERLPVPVTISNLIEHFSAQDDKYVVGTFRFATVLTVGIVKDISQDGTTYTYDLCDPNNTEMEYRTLKYDNEGSTFDHSSIVEGTRVRAIGKLKGFDGNNTIMLFNITPVEDDKDFTIFELEAEAARLFFQKNVSEKLKSVDSDGFQGMLAPPKSRMSQTSHQSSQGSDTKERLYAQPQKVMTGANQGDVLRERITAVLMAVPEGSRDEGRHVSWIAEQIQETNISIVRKCVGEMVENGLVYTTVDEETVSAI
notes: also called 3XFLAG-tagged RPA-2; source: endogenous locus tagged by CRISPR/Cas9, C. elegans whole worm lysate; not shown: 3xFLAG, N-terminal, kept
On to B1, for which the pulldown counts in data set [3] amounted to 724 counts.

B2: OLLAS::RPA-1 (natural protein, C. elegans, UniProt Q19537 1-655, looked up)
chain: MAAIHINHDVFNKYHTNGKLRLTTGYVQEAIENNGYPGHDGIVQVLKGKVEQGEQLGHAFTFRIRISDGVFQYNALMSADIDDQIKREVEHLVEGTIIALTKFEIYDQGEGAKNCFLIKGYKILSRYHQVLTSPEVKPRSHSGKPDEHKGYRPNIIIEDVWPEAEGMAADYQENMANPPAAKAPKREFGEEASYNRAAAPEATRARAVPPPARRTASNTERGVMPIAMVTPYVSNFKIHGMVSRKEEIRTFPAKNTKVFNFEITDSNGDTIRCTAFNEVAESLYTTITENLSYYLSGGSVKQANKKFNNTGHDYEITLRSDSIIEAGGELLAAPKLILKRVKLGEIAGYAGQLIDVLVVVEKMDPEATEFTSKAGKSLIKREMELIDESGALVRLTLWGDEATKALVDDYVQKVIAFKGVIPREFNGGFSLGTGSATRIISVPEIAGVSELYDWYANVKPTTEVKMMSQAAGGSNEAPRTIAGLQEMQFGKDSDKGDYATVKAMITRVNPTNALYRGCASEGCQKKLVGENGDYRCEKCNKNMNKFKWLYMMQFELSDETGQVYVTAFGDSAAKIVGKSAAELGELHDESPDEYNAIFERLQFVPKMWRLRCKMDSYNEEVRQKMTVYGVDDVNQDKYIENLKQMIEQMQQMSDY
notes: also called OLLAS-tagged RPA-1; CeRPA large subunit; source: endogenous locus tagged by CRISPR/Cas9, C. elegans whole worm lysate; not shown: OLLAS, N-terminal, kept
On to B2, for which the pulldown counts in data set [3] turned out to be 1060 counts; in the data set with MYC::RPA-4 (C. elegans), 100 counts.
